The results in this text go back to patent US20220195037A1 (AstraZeneca / MedImmune, published 2022).

The assay concerns the target T1, Lectin-like oxidized low density lipoprotein receptor-1 (LOX1), expressed on cells (UniProt P78380 1-273, limits assumed).
T1 construct: whole, on cells; Also used as the target for the functional rows, where it is endogenous LOX1 on patient-derived pancreatic tumor cells, cancer cell lines and cardiomyocytes; also called LOX1-expressing cells; cells overexpressing LOX1
Briefly: Western blot of lysates of human aortic endothelial cells, membrane probed with LX5140110 at 1 µg/ml and anti-human-Fc-HRP. An excerpt:
Inhibition of LOX1 can reduce chemotherapy-induced cardiomyocyte damage. While the combination of chemotherapy and anti-CSC targeted therapies will likely be useful in the clinic, it is known that many chemotherapies have unintended harmful side effects in addition to anti-tumor activity. One such side effect is cardiac damage that can lead to cardiomyocyte death and heart failure. […] First, we examined the expression of LOX1 in response to doxorobucin treatment in human aortic endothelial cells (HAEC) and embryonic stem cell derived cardiomyocytes. Oxidized LDL (Ox-LDL) is a conventional ligand of LOX1 and was added as a control, since previous reports show an increase of LOX1 in response to Ox-LDL in rat cardiac muscle cells (Spallarossa et al., (2005)). Forty-thousand cells were plated in a 96-well plate and treated with media alone or media containing 5 μM doxorubicin for 24 hours. The cells were then scraped and lysed with 1× RIPA buffer containing protease inhibitors on ice for 1 h. Loading buffer was added to each sample followed by heating for 10 min at 90° C. Twelve microliters of sample was loaded per lane in a 4-12% bis-tris gradient gel. The gels were run for 40 min at 200V in MOPS buffer. The proteins were transferred onto a nitrocellulose membrane using iBlot. The membrane was blocked overnight with casein solution. […]

B1: LX5140110 (antibody, V domains shown)
VH: QVQLVQSGAEVKKPGASVKVSCKVSGYTLTELSMHWVRQAPGKGLEWMGGFDPEDFKYHTHQKFQGRVTMTEDTSTDTAYMELSSLRSEDTAVYYCALVWGTQGKGVRGWDYYYGMDVWGQGTTVTVSS
VL: QSVVTQPPSVSGAPGQRVTISCTGSSSNIGAGYDVHWYQQLPGTAPKLLIYGNSNRPSGVPDRFSGSKSGTSASLAITGLQAEDEADYYCQSYDSSLSGWVFGGGTKLTVL
notes: Monoclonal antibody; It was detected with an anti-human-Fc antibody, and the controls were non-specific IgG1; also called LOX1-specific monoclonal antibody; LOX1 monoclonal antibody
As for B1, the binding result is on record as “binds”.
